Measured values reported in patent publication US20230303660A1.

Molecular target: human 4-1BB (human) (UniProt Q07011)
Experiment: cell-based or functional assay

Sequence of human 4-1BB (human) (Q07011 24-255): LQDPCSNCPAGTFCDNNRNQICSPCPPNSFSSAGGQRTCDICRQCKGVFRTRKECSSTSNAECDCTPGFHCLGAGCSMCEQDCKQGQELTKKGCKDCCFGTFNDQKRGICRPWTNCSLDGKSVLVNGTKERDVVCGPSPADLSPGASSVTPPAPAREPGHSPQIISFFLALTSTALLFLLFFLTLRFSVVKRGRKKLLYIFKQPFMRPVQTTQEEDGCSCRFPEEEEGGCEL

NF-κB activation measured through eCFP expression (fold induction): 2.5 fold
Substance: human 4-1BBL expressed on T cell stimulator cells (from UniProt P41273 1-254) (ligand)
